According to patent US20250076311A1 (Chugai, published 2025):

Experiments:
Human latent myostatin [1] = biological target: T1, Human latent myostatin (human, UniProt O14793 25-266; O14793 267-375); experiment: SPR affinity condition (capture 18.5 RU), pH7.4, 37C
T1 construct: Biotinylated in the ELISAs; also called human myostatin latent form
T1 sequence 1: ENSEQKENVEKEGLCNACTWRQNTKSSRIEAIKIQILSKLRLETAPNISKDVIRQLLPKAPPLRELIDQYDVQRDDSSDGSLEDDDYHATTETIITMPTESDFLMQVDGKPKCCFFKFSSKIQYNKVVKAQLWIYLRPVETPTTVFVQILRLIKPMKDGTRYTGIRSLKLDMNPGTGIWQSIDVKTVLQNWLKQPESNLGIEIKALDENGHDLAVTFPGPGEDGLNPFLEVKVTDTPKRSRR
T1 sequence 2: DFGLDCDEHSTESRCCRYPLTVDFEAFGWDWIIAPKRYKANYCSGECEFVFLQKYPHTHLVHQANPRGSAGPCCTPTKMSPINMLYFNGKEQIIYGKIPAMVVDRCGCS
Protocol: (§1) The kinetic parameters of anti-latent myostatin antibodies against human, cynomolgus monkey (cyno), and mouse latent myostatin were assessed at 37° C. at pH7.4 using a BIACORE® T200 instrument (GE Healthcare). ProA/G (Pierce) was immobilized onto all flow cells of a CM4 chip using amine coupling kit (GE Healthcare). Anti-latent myostatin antibody and analytes were prepared in ACES pH7.4 (20 mM ACES, 150 mM NaCl, 1.2 mM CaCl₂), 0.05% TWEEN® 20, 0.005% NaN3). […] The sensor surface was regenerated with 25 mM NaOH. Kinetic parameters were determined by processing and fitting the data to a 1:1 binding model using BIACORE® T200 Evaluation software, version 2.0 (GE Healthcare).
(§2) All experimental settings were the same as in Example 7, except that measurements were also performed in ACES pH5.8 buffer in addition to ACES pH7.4 condition. Some antibodies were only measured against human latent myostatin. Antibody capture level was aimed at 185 RU and 18.5 RU, for avidity and affinity assay, respectively. Kinetic parameters were determined using 1:1 Binding fitting using BIACORE® T200 Evaluation software, version 2.0 (GE Healthcare).

Human latent myostatin [2] = biological target: T1, Human latent myostatin; experiment: SPR avidity condition (capture 185 RU), pH5.8, 37C; pH 5.8
Protocol: as §1, §2

kon (Human latent myostatin [1]): 1.54e+06 M⁻¹ s⁻¹
kon (Human latent myostatin [2]): 781000 M⁻¹ s⁻¹
B1: MS_M103205H707-SG1/M103202L802-SK1 (antibody, human IgG1, kappa, V domains shown)
VH: QVTLKESGPVLVKPTETLTLTCTVSGIDLSHYDISWVRQAPGKGLEWVGIISYAGSTYYASWAKGRLTISKDTSKNQVVLTMTNMDPVDTATYYCARGVPAYSHGGDLWGQGTLVTVSS
VL: DIVMTQSPATLSLSPGERATLSCTSSQSVYHDNWLSWFQQKPGQPPKLLIYWASTLAYGVPSRFSGSGSGTDFTLTISSLQPEDAATYYCAGGYGGGLYAFGQGTKVEIKR
notes: also called MS1032LO04-SG1
